A word on the IC50: it is the midpoint of a concentration-inhibition curve. A low value points to higher potency. For orientation: EC50 means the concentration that produces a half-maximal response. A higher EC50 goes with weaker potency.

One molecule from patent CN115947850A (BEIJING DONGFANG BIOTECH CO LTD, dated 2023) can be followed below.

The target in assay [1] is T1, LILRB4 on the surface of human monocytic leukemia cells (THP-1) (human, UniProt Q8NHJ6 22-448).
T1 construct: whole, on cells; also called THP-1细胞表面的LILRB4
The assay is described as follows: flow cytometry competition on THP-1 cells; competitor FITC-labelled ApoE at 0.4 μg/mL.

The target of assay [2] is T1, LILRB4 on the surface of human …. In words: flow cytometry on THP-1 cells, FITC goat anti-mouse IgG detection. (In flow cytometry, cells or beads pass a laser one at a time.)
Assay [3] has the same target. In words: cell-based or functional assay.
Assay [4] concerns the target T2, human LILRB4 extracellular domain (LILRB4抗原, LILRB4蛋白胞外段) (human, UniProt Q8NHJ6 22-259).
T2 construct: extracellular domain; also called 人LILRB4
The assay is described as follows: ELISA, coated LILRB4 100 ng/well, goat anti-mouse IgG-HRP detection.

The target in the next assay is LILRA3 (UniProt Q8N6C8 24-439). The assay is described as follows: ELISA, coated LILR protein 100 ng/well. On the technique in general: ELISA stands for enzyme-linked immunosorbent assay.
For another assay, the target named is LILRA6 (UniProt Q6PI73 24-447, limits assumed). The assay is described as follows: ELISA, coated LILR protein 100 ng/well.
Another assay deals with LILRB5 (UniProt O75023 24-458, limits assumed). In words: ELISA, coated LILR protein 100 ng/well.
For a further assay, the target named is LILRB3 (UniProt O75022 24-443, limits assumed). In words: ELISA, coated LILR protein 100 ng/well.
In the next assay the target is LILRB2 (UniProt Q8N423 22-460, limits assumed). The assay is described as follows: ELISA, coated LILR protein 100 ng/well.
For another assay, the target named is LILRA1 (UniProt O75019 17-461, limits assumed). The assay is described as follows: ELISA, coated LILR protein 100 ng/well.
The target in another assay is LILRB1 (UniProt Q8NHL6 24-461, limits assumed). In words: ELISA, coated LILR protein 100 ng/well.
Another assay deals with LILRA4 (UniProt P59901 24-446, limits assumed). In words: ELISA, coated LILR protein 100 ng/well.
Another assay has as its target LILRA2 (UniProt Q8N149 24-449, limits assumed). The assay is described as follows: ELISA, coated LILR protein 100 ng/well.
For a further assay, the target named is LILRA5 (UniProt A6NI73 42-268, limits assumed). In words: ELISA, coated LILR protein 100 ng/well.
Chain of LILRA5 (A6NI73 42-268 limits assumed): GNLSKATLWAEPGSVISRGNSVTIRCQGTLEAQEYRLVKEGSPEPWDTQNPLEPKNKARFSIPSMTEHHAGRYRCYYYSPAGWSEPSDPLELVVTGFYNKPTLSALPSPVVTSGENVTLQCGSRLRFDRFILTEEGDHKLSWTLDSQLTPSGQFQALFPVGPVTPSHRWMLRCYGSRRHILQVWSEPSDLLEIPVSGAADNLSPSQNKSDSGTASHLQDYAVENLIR

Chain of LILRA4 (P59901 24-446 limits assumed): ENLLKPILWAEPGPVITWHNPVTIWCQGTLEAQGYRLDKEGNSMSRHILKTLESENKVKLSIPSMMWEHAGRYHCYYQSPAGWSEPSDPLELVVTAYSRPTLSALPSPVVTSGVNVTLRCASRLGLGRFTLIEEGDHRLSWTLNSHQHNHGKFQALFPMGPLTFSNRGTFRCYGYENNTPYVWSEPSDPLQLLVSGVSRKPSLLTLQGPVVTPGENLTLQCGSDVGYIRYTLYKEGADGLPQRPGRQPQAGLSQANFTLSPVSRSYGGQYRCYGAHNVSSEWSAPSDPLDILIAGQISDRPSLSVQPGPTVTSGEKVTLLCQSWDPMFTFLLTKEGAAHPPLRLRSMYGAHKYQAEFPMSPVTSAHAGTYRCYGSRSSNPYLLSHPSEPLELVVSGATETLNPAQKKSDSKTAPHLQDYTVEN
Chain of LILRA1 (O75019 17-461 limits assumed): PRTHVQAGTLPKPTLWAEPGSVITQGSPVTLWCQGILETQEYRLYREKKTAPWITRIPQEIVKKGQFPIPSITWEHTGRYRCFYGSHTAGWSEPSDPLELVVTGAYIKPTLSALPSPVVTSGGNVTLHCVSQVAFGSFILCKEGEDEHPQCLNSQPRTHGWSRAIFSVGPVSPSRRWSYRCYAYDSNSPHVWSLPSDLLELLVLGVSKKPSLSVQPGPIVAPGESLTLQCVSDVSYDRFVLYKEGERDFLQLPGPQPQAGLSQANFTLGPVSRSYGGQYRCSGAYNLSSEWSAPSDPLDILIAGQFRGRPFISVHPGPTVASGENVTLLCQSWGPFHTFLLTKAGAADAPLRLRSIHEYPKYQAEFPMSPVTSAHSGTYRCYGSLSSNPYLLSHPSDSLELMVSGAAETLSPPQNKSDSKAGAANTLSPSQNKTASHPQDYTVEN
Chain of LILRB2 (Q8N423 22-460 limits assumed): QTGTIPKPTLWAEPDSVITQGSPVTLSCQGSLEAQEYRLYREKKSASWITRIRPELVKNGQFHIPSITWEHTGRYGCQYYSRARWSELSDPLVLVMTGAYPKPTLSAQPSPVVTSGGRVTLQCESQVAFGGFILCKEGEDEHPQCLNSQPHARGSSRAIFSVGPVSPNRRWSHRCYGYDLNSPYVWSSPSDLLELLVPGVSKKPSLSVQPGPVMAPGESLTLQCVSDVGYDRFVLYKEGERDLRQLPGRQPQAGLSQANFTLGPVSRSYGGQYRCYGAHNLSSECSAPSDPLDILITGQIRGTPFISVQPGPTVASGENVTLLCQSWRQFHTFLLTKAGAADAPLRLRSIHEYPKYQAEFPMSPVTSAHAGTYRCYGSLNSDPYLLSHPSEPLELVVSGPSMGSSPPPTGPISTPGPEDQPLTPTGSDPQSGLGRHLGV
Chain of LILRB1 (Q8NHL6 24-461 limits assumed): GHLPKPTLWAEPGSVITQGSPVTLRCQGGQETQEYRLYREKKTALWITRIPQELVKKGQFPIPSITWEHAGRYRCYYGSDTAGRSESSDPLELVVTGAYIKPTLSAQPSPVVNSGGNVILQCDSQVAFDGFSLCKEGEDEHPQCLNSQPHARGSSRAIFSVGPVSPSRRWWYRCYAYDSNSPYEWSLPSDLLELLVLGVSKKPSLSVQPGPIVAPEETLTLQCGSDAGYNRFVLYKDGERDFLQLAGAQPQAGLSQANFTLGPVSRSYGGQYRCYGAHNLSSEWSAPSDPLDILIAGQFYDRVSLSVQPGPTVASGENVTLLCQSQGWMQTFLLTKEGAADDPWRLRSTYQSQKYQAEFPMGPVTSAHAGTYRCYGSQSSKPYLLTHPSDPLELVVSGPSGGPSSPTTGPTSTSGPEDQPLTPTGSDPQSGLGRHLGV
Chain of LILRA3 (Q8N6C8 24-439 limits assumed): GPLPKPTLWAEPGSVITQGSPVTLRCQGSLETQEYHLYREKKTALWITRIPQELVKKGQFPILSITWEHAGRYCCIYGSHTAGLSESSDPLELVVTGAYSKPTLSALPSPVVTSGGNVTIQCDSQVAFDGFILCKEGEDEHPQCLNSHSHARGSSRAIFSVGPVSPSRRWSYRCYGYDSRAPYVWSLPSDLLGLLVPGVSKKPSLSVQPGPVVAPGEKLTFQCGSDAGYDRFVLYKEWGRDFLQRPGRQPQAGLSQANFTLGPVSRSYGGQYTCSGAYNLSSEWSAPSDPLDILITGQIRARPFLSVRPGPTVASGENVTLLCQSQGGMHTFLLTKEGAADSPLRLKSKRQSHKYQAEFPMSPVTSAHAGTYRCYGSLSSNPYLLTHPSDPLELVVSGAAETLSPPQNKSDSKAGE
Chain of LILRA2 (Q8N149 24-449 limits assumed): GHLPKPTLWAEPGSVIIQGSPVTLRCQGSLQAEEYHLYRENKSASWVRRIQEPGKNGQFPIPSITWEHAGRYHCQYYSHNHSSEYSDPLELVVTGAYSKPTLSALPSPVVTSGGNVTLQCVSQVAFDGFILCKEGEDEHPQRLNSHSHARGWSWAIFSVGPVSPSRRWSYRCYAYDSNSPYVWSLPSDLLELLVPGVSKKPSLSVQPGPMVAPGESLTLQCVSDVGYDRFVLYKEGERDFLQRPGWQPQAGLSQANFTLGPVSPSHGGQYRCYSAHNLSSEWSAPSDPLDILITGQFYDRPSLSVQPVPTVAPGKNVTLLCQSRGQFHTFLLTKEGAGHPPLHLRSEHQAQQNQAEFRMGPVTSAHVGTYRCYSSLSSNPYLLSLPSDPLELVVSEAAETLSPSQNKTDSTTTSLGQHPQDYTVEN
Chain of LILRB5 (O75023 24-458 limits assumed): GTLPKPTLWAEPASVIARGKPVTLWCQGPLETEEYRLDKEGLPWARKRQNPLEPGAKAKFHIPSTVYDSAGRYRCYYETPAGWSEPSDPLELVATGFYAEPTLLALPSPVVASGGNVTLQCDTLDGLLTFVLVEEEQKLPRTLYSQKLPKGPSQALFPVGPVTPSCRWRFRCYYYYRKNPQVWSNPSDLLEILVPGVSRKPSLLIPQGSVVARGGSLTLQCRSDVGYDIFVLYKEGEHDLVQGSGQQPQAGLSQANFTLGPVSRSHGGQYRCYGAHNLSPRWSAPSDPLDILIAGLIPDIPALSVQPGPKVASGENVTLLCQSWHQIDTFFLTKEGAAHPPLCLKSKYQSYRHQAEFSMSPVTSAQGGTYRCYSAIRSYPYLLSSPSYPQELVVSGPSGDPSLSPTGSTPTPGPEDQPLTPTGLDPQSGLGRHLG
Chain of LILRB3 (O75022 24-443 limits assumed): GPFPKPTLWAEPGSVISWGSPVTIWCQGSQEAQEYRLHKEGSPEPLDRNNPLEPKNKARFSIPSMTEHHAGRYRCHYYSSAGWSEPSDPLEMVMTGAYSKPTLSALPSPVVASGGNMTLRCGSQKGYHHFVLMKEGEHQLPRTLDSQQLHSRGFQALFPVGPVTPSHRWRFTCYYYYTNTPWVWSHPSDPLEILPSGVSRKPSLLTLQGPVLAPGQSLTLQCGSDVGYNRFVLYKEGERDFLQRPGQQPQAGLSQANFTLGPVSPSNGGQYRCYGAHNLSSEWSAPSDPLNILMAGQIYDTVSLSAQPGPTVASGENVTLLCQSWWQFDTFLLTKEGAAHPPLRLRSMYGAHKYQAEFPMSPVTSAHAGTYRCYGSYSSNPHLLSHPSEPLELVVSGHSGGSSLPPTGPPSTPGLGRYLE
Chain of LILRA6 (Q6PI73 24-447 limits assumed): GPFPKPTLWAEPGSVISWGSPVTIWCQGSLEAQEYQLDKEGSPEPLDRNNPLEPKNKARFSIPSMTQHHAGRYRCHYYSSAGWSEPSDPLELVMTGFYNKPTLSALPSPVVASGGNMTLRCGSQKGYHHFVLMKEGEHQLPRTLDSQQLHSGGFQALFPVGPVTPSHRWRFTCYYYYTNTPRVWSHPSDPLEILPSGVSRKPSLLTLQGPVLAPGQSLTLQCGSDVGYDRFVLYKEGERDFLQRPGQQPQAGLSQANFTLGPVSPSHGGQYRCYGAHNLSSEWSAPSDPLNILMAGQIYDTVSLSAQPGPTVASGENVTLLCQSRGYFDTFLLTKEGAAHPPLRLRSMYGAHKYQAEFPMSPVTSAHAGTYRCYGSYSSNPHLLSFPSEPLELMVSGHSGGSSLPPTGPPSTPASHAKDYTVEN

B1: ME-Ⅰ anti-LILRB4 monoclonal antibody (mouse IgG1 / Cκ) (antibody, V domains shown)
VH: EVQLEQSGAEVVKPGASVKLSCKASGYTFISYWMHWVKQRPGQGLEWIGEINPTNGRTNYNEKFKSKATLTVDKSSGTAYMQLSSLTSEDSAVYYCARWGQLGLREGYYAVDYWGQGTSVTVSS
VL: DIVLTQSPSSLSASLGDRVTISCRASQDISNYLNWYQQNPNGTVKLLIYYTSRLHSGVPSRFSGSGSGTDYSLTISNLEQEDIATYFCQQGDTLPPTFGGGTKLEIKA
notes: also called 单克隆抗体ME-Ⅰ; ME-Ⅰ抗LILRB4单克隆抗体
Molecule B1 came in with an IC50 in [1] of 9.69 mg/L. In addition, the 50% effective concentration (EC50) amounted to 5.48 mg/L in [2] and 0.375 mg/L in assay [4]. The “IC50 of inhibition of ARG1 secretion by THP-1 cells in the presence of ApoE (arginase activity kit)” value in assay [3] is 330 mg/L. The binding result in the assay with LILRA3, with LILRA6, with LILRB5, in the assay with LILRB3, in the assay with LILRB2 and with LILRA1 was “no binding (tested: 50μg/mL)” each time. Further, the binding result in the assay with LILRB1, in the assay with LILRA4, with LILRA2 and with LILRA5 was “no binding (tested: 50μg/mL)” throughout.
